Experimental data taken from patent publication US9228020B2, “Compositions and methods for diagnosing and treating cancer” (OncoMed Pharmaceuticals, Inc., priority 2006, dated 2016).
Residue numbers refer to the chain shown, from its start. Each block holds one molecule with its values, some of them ahead of it.

Biological target: T1, DLL4 antigen (Homo sapiens, UniProt Q9NR61)
T1 construct: DLL4 antigen protein comprises approximately amino acid 27 through amino acid 522; made in house; host or cells: insect cells (baculovirus)
T1 sequence (Q9NR61 27-522): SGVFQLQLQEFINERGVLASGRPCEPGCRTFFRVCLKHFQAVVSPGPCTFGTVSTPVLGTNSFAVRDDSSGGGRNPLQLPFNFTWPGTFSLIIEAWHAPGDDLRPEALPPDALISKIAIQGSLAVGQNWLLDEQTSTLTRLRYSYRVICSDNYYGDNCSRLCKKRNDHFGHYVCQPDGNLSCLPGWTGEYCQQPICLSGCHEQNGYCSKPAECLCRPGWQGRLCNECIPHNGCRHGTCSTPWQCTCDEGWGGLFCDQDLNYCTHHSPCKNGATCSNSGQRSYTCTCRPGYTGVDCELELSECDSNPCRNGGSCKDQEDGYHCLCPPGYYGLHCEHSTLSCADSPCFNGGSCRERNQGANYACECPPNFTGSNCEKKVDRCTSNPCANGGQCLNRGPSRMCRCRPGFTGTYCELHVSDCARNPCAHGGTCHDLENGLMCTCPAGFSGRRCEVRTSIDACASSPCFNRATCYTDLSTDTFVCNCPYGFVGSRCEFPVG
Assay: ELISA of conditioned media for DLL4 antigen binding (humanized variants)
Details: conditioned media of cotransfected HEK293 cells
Method: The functionality of each candidate variant humanized heavy and light chain was tested by cotransfection into mammalian cells. Each of the five candidate humanized 21M18 heavy chains described above was cotransfected with the murine 21M18 light chain cDNA into HEK 293 cells, and conditioned media was then assayed for DLL4 antigen binding activity by ELISA. […] This variant—“21M18 H2”—contained, in additional to murine CDRs, murine residues at five framework positions, Kabat positions 20, 28, 38, 48, and 69 (FIG. 4). The 21M18 H2 humanized heavy chain was then cotransfected with each of the five candidate humanized light chains into HEK293 cells, and conditioned media was again assayed for antigen binding by ELISA.
Next, the isolated cysteine residue in CDR2H2 (SEQ ID NO: 2) was altered. Specifically, two heavy chain variants of H2 were synthesized with the cysteine residue at Kabat position 52a modified to a serine (variant H7; SEQ ID NO: 3) or a valine (variant H9; SEQ ID NO: 4) residue. These heavy chains were cotransfected into HEK293 cells with L2, and conditioned media was again assayed. […] Thus 21M18 heavy chain CDR2 comprises SEQ ID NO: 2, 3, or 4 in which the residue at Kabat position 52a comprises a cysteine, serine, or valine residue.

- antigen binding by ELISA: demonstrated specific antigen binding
B1: 21M18 H7L2: humanized 21M18, heavy chain Kabat position 52a serine (H7) with L2; ATCC deposit no. PTA-8425 (antibody, V domains shown)
VH: QVQLVQSGAEVKKPGASVKISCKASGYSFTAYYIHWVKQAPGQGLEWIGYISSYNGATNYNQKFKGRVTFTTDTSTSTAYMELRSLRSDDTAVYYCARDYDYDVGMDYWGQGTLVTVSS
VL: DIVMTQSPDSLAVSLGERATISCRASESVDNYGISFMKWFQQKPGQPPKLLIYAASNQGSGVPDRFSGSGSGTDFTLTISSLQAEDVAVYYCQQSKEVPWTFGGGTKVEIK

- antigen binding by ELISA: demonstrated specific antigen binding
B2: 21M18 H9L2: humanized 21M18, heavy chain Kabat position 52a valine (H9) with L2; ATCC deposit no. PTA-8427 (antibody, V domains shown)
VH: B1 VH with S53V
VL: B1 VL
